Experiment: yeast display, Sf9 membrane polyspecificity reagent, FACS + sequencing; frameworks hold sequencing errors
Summary of the method: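 Sorting gates, low and high (top ~1%), were placed on anti-HA fluorescence to track expression and on streptavidin fluorescence to track reagent binding. A clone's polyreactivity label is taken from the gate it came out of. The reagent was 10% biotinylated, detergent-solubilized Sf9 membrane, applied for 1 hour at 4 °C to galactose-induced yeast display cells.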

Row | Sequence | polyreactivity (PSR sort gate)
1 | QVQLVESGGGLVQAGGSLRLSCAASGSTFYLYAMGWYRQAPGKEREFVAAISWSGGRTYYADSVKGRFTISRDNAKNTVYLQMNSLKPEYTAVYYCAARRRYTWQYTRYDMGYWGQGTQVTVSS | low polyreactivity
2 | QVQHVESGGGLVQAGGSLRLSCAPSGSIFRPYAMGWSRQAPGKEMELVAAISFSGAGTYYADSVKGRFTISRDNAKNTVYLQMNSLTPEDTAVYYCNARRYTTYWLLYEYDYWGQGTQVTVSS | low polyreactivity
3 | QVQLVDSGGGLVQAGGSLRLSCAASGRTFGAYDMGWYRQAPGKERELVAAISSGATTNYADSVKGRFTISRDNAKNTVYLQMNSLKPEDTAVYYCAASVYRYIYAFNYWGQGTQVTVSS | low polyreactivity
4 | QVQLQESGGGMVQAGGSLRLSCAASGYISWADYMGWYRQAPGKERELVAGIGYGSTTYYADSVKGRFTISRDNAKNTAYLQMNSLKPEDTAVYYCNADVRYGRDHWGQGTQVTVSS | low polyreactivity
5 | QVQLVESGGGLVQAGGSLRLSCAASGFTFGRYAMGWYRQAPGKERELVAAISFSGGRTYYADSVKGRFTISRDNAKNTVYLQMNSLKPEDTAVYYCAARRRQEHVGRSSYARYDYWGQGTQVTVSS | high polyreactivity
6 | QVQLVESGGGLVQAGGSLRLSCAASGIIFVRYAMGWYRQAPGKERELVAAISSGGGSTYYADSVKGRFTISRDNAKNTVYLQMNSLKPEDTAVYYCATVVYPYSPRYDYWGQGTQVTVSS | high polyreactivity
7 | QVQLVESGGGLVQAGGSLRLSCASSGITLYGYAMGWYRQAPGKEREFVAAISRSGDRTYYADSVKGRFTISRDNAMNTVYLQMNSLKPEDTAVYYCNAWRYDYWGQGTQVTVSS | high polyreactivity
8 | QVQLVESGGGLVQAGGSLRLSCAASGRTFVGYVMGWYRQAPGKERELVASITYTGTSTYYADSVKGRFTISRDNAKNTVYLQMNSLKPEDTAVYYCAAQYYLYRRGYIWKYDYWGQGTQVTVSS | high polyreactivity
9 | QVQQQESGGGLVQAGGSLRLSCAASGYISVVIGMGWYRQSPGKERELVASIAYGAITYYTDSVKGRFTISRDYAKNTEYLQMNSLKAEDTAVYYCAADKPPLAYHWYWGQGTQATVSS | high polyreactivity
10 | QVQLVDSGGGLVQAGGSLRLSCAASGITFRTYAMGWYRQEPGKERELVAAISGSSTSTYYADSVKGRFTISRDNAKNTVYLQMNSLKPEDTAVYYCAAGYRVSVYRYYYWGQGTQVTVSS | high polyreactivity
11 | QVQLVESGGGLVQAGGSLRLSCAASGRIFFSYAMGWYRQAPGKERELVAAITSGGSTNYADSVKGRFTISRDNAKNTVYLQMNSLKPEDTAVYYCNKARSSGYNFGYWGQGTQVTVSS | low polyreactivity
12 | QVQLVESGGGLVQAGGSLRLSCAASGFTLGYNVMGWYRQAPGKERELVATICWNGARTYYADSVKGRFTISRDTAKNTVYLQMNSLKPEDTAVYYCAARRYYRGEYDYWGQGTQVTVSS | low polyreactivity
13 | QVQLVESGGGLVQAGGSLRLSCAASGSILSAYSMGWYRQAPGKARELVAAISKSGSSTYYSDSVKGRFTISRDNAKNTVYLQMNSLKPEDTAVYYCAAESSSYYGYYIYYYWGQGTQVTVSS | high polyreactivity
14 | QYQLVESGGGLVQAGRTLRLSWAASGRIFVRYVMGCYRQAPVKERELVAAISSSGGSTYYADSVKGRFTISRDNAKNWVYLQIYSLKPEDTAVYYCATDFMDKYILPYDYWGQGTQVTVSS | low polyreactivity
15 | QVQLVESGGGLVQAGGSLRLSCAASGSTFTANAMGWYRQAPWKERELVAAITNSDGSTYYADSVKGRFTISRDNAKNTVYLQMNSLKPEDTAVYYCAKDYYACYWEMDYWGQGTQVTVSS | low polyreactivity
16 | QVQLVESGGGLVQAGGSLRLSCAASGSIFNYYAMGWYRQAPGKERELVATITTRDGTTYYADSVKGRFTISRDNAKNTVYLQMNSLKPEDTAVYYCAKSWWPSRRTYSFYYWGQGTQVTVSS | high polyreactivity
17 | QVQLVESGGGLVQAGGSLRLSCAASGSTFGGYAMGWYRQAPGKERELVATITGGGSTNYADSVKGRFTISRDNAKNTVYLQMNSLKPEDTAVYYCAATEKYQYKVYYDPVGAYDYWGQGTQVTVST | low polyreactivity
18 | QVQLVESGGGLVQAGGRLRISCAASGSIFEINAMGWYRQAPGKERELVAAITGSGGSTHYADSVKGRFPISRDNAKNTVYLQMNCLKPEDTAVYYCAAVPRYQYGYLGQGTQVTVSS | low polyreactivity
19 | QVQLVESGGGLVQAGGRLRLSSAASGRTFFGSYAMGWYRQAPGKERELVADIRSGGNTNYADSVKGRFTISRDNAKNTVYLQMNRLKPDDTAVYYCASDGYSIVVYHPDYRYVYWGQGTQLTVSS | low polyreactivity
20 | QVQLVESGGGLVQAGGSLRISCAASGSIFRPNAMGRYRQAPGKERELVAAINTSDDSTYYADSVKGRFTISRDNAKNTVYLQMNSLKQEDTAVYYCAAEYYAYPYGDYYDYWGQGTQVTVSS | low polyreactivity
21 | QVQLVESGGGLVQAGGSLRLSCAASGFTFVWYVMGWYRQAPGKEREFVAAITSTGGNTNYADSVKGRFTISRDNAKNTVYLEMNSLKPEDTAVYYCAKRYGFPPGYYYWGQGTQVTVSS | low polyreactivity
22 | QVQLVESGGGLVQAGGSLRLSCAPSGFTFRYYAMGWYRQAPGKERELVAAISWSVGSTYYADSVKGRFTISRDNAKNTVYLQMNSLKPEDTAVYYCNAAWPGYISNRLGYDYWGQGTQVTVSS | high polyreactivity

Row | Sequence | polyreactivity (PSR sort gate)
23 | QVHRVESGGRLVPAGGSLRLSCAASGFTFSVNAMGWYTPPPGKEMELVAAISSGGSTSYADSVKGRFTISRDNAKNTVYLQMNSLKPEDTAVYYCAAEYHSAGSLYTYSKYYHWGQGTQVTVSS | low polyreactivity
24 | QVQHVESGGGLFQAGGSHRLSCAASGRTFSKNAMGWYRQAPGKERELVAAINRGGTTKYADSVKGRFTISRDNAKNTVYLQMNSQKPEDTTVYYCAVDRQRAGYPKQYDSWGQGTQVTVSS | low polyreactivity
25 | QVQLVESGGGLVQAGGSLRLSCAASGFTLLGNTMGWYRQAPGKERELVAAIRTNSGRTYYADSVKGRFTISRDNAKNTVYLQMNSLKPEDTAVYYCAKRYFSYLGREMDYWGQGTQVTVSS | high polyreactivity
26 | QVQLVESGGGIFHAGGSLRLRCAASGSIYRGYAMVWYRQAPGKERELVASIRWRGGRTNYADSVKGRFTISRDNAKNTVYLQMNSLKPEDTAVYYCNADQQTIRSGKNDYWGQGTQVTVSS | low polyreactivity
27 | QVQLVESGGGLVQAGGSLRLSCAASGRIFGDNAMGWYRQAPGKERELVAGIRWRADRTYYADSVKWRFTISRDNAKNTVYLQMNSLKPEDTAVYYCNVGSFTGHSYGFGYWGQGTQVTVSS | low polyreactivity
28 | QVQLVESGGGLVQAGGSLRLSCAASGLTLTYYAMGWYRQAPGKERELVAAISSSGGSTYYADSVKGRFTISRDNAKNTVYLQMNSLKPEDTAVYYCAARDWASHTPFDYWGQGTQVTVSS | high polyreactivity
29 | QVQLVESGGGLVQAGGSLRLICAASGSIFEYYAIRLYRQAPGTERELVADITYDGGNTYYADSLKGRFTISRDNAKNTVYLQMNSLKPEDTAVYYCATEYRYWQSDYSTYFPYDYWGQGTQVTVSS | low polyreactivity
30 | QVQLVESGGGLVQAGGSLRLSCAASGYIFLANAMGWYRQAPGKVRELVAAITSGGGGTYYADSVKGRFTFSRDNAKNTVYLQMNSLKPEDTAVYYCAADHGRDGSSFEYWGQGTQVTVSS | low polyreactivity
31 | QVQHVESGGGLVQAGGSLRLSCAASGRTFAQYTMGWYRQAPGKERELVAGIDWSGGNTYYADSVKGRFTISRDNAKNTVYLQMNSLKPVDTAVYYCAAVPAFYNAWGEDYEYWGQGTQVTVSS | low polyreactivity
32 | QLQLVESGGGLVQAGGSLLLSCAASGITFPANAMGWYRQAPGKERELVAAITGRGGRTYYADSVKGRFTISRYYAKNTVYLQMISLKPEDTAVYYCNAYLWRVTQNYDYWGQGTQVTVSS | high polyreactivity
33 | QVQLVESGGGLVQAGGSLRLSCAASGRIFRHYAMGWYRQAPWKERELVATITSGGRTNYADSVKGRFTISRDNAKNTVYLQMNSLKPEDTAVYYGAVDTWGSSWYDLFRETSDYWGQGTQVTVSS | low polyreactivity
34 | QVQLVESGGGLVQAGGSLRLSCAASGSIFATYAMGWYRQAPGKERELVAAISSSGSRTYYADSVKGRFTISRDNAKNTVYLQMNSLKPEDTAVYYCAKAYLSPYQYDYWGQGTQVTVSS | high polyreactivity
35 | QVQLVESGGGLVQAGGSLRLSCAASGSILGRYAMGWYRQAPGKERELVAVITSGGSTNYADSVKGRFTISRDNAKNTVYLQMNSLKPEDTAVYYCAVRPYELHRLADQPGGDDYWGQGTQVTVSS | low polyreactivity
36 | QVQLVESGGGLVQAAGSLRLSCAASGSIFNRSTMGWSRQAPGKERELVAGISRGGTTYYADSVKGRFTISRDNAKNTVYLQMNSLKPEDTAVFYCAADYGLLYGQLWGYGYWGQGTQVTVSS | high polyreactivity
37 | QVQLVESGGGLVQAGGSLRLSCAASGRIFTRYAMGWYRQAPGKERELVAAISYGGGGTYYADSVKGRFTISRDNAKNTVYLQMNSLKPEDTAVYYCATDDPLSQINEQGMDYWGQGTQVTVSS | low polyreactivity
38 | QVQLVESGGGLVQAGGSLRLSCAASGSIFDDYAMGWYRQAPGKERELVAAISSSGTSTYYADSVKGRFTISRDNAKNTVYLQMNSLKPEDTAVYYCAARSAILKSGYLMDYWGQGTQVTVSS | low polyreactivity
39 | QVQLVESGGGLVQAGGSLRLSCAASGRIFTRYAMGWYRQAPGKERELVAAITQRGGTTYYADSVKGRFTISRDNAKNTVYLQMNSLKPEDTAVDYCATRYRYYTERDYWGQGTQVTVSS | high polyreactivity
40 | QVQLVESVGGLVQAGGSLRLSCAASGSNFKYYAMGWYRQAPGKERELVAAITIGGNTNYADSVKGRFTISRDNAKNTVYLQMNSLKPEDTAVYYCATGGYYSAIVYGGYDYWGQGTQVTVSS | low polyreactivity
41 | QVQLVESGGGLVQAGGSLRLSCAASGSTFVQYAMGWYRQAPGKERELVAAITSGGRTNYADSVNGRFTISRDNAKNTVYLQMNSLKPEDTAVYYCAARYGSNSPRRYEYYYWGQGTQVTVSS | low polyreactivity
42 | QVQLVESGGGLVQAGGSLRLSCAASGIIFLWYAMGWYRQAPGKERELVAAITSGGSTYYADSVKGRFTISRDNAKNTVYLQMNSLKPEDTAVYYCAAVNGWRRVKRFDYWGQGTQVTVSS | high polyreactivity
43 | QVQLVESGGGLVQAGGSLRFSCAASGRTFTYYAMGWYRQAPGKERELVASIRKSGASTYYADSVKGRFTISRDKAKNTVYLQMNSLKPEETAVYYCNTAKGHGRYEYWGQGSQVTVSS | high polyreactivity
